Data published in patent publication US20240270813A1 (UNIVERSITY OF PITTSBURGH OF THE COMMONWEALTH SYSTEM OF …, published 2024).
Values joined by “and” are separate entries in the source; they are usually repeats but may differ in a detail not shown here. Equal values may be shown once.

T1: minor histocompatibility antigen HA-1, immunogenic H variant peptide on HLA-A*02:01 (human)
T1 peptide: VLHDDLLEA

B1: TCR V (TCR, V domains shown)
V domain 1: AQTVTQSQPEMSVQEAETVTLSCTYDTSENNYYLFWYKQPPSRQMILVIRQEAYKQQNATENRFSVNFQKAAKSFSLKISDSQLGDTAMYFCALYSGAGSYQLTFGKGTKLSVIP
V domain 2: DTGVSQDPRHKITKRGQNVTFRCDPISEHNRLYWYRQTLGQGPEFLTYFQNEAQLEKSRLLSDRFSAERPKGSFSTLEIQRTEQGDSAMYLCASSLAAGMNTEAFFGQGTRLTVVE
B2: TCR AJ (TCR, V domains shown)
V domain 1: EDQVTQSPEALRLQEGESSSLNCSYTVSGLRGLFWYRQDPGKGPEFLFTLYSAGEEKEKERLKATLTKKESFLHITAPKPEDSATYLCAVHSNAGGTSYGKLTFGQGTILTVHP
V domain 2: DAGVTQSPTHLIKTRGQHVTLRCSPISGHKSVSWYQQVLGQGPQFIFQYYEKEERGRGNFPDRFSARQFPNYSSELNVNALLLGDSALYLCASSADRGSPLHFGNGTRLTVTE
B3: TCR AA (TCR, V domains shown)
V domain 1: QQQVKQSPQSLIVQKGGISIINCAYENTAFDYFPWYQQFPGKGPALLIAIRPDVSEKKEGRFTISFNKSAKQFSLHIMDSQPGDSATYFCAASSPGTYKYIFGTGTRLKVLA
V domain 2: DTGVSQDPRHKITKRGQNVTFRCDPISEHNRLYWYRQTLGQGPEFLTYFQNEAQLEKSRLLSDRFSAERPKGSFSTLEIQRTEQGDSAMYLCASSLLKNTEAFFGQGTRLTVVE
B4: TCR W (TCR, V domains shown)
V domain 1: AQSVAQPEDQVNVAEGNPLTVKCTYSVSGNPYLFWYVQYPNRGLQFLLKYITGDNLVKGSYGFEAEFNKSQTSFHLKKPSALVSDSALYFCAVRDPTSGTYKYIFGTGTRLKVLA
V domain 2: DTGVSQDPRHKITKRGQNVTFRCDPISEHNRLYWYRQTLGQGPEFLTYFQNEAQLEKSRLLSDRFSAERPKGSFSTLEIQRTEQGDSAMYLCASSLVQGNEQFFGPGTRLTVLE
B5: TCR Z (TCR, V domains shown)
V domain 1: QQVMQIPQYQHVQEGEDFTTYCNSSTTLSNIQWYKQRPGGHPVFLIQLVKSGEVKKQKRLTFQFGEAKKNSSLHITATQTTDVGTYFCAGPKGNTPLVFGKGTRLSVIA
V domain 2: DTGVSQDPRHKITKRGQNVTFRCDPISEHNRLYWYRQTLGQGPEFLTYFQNEAQLEKSRLLSDRFSAERPKGSFSTLEIQRTEQGDSAMYLCASSLTVSYEQYFGPGTRLTVTE
B6: TCR X (TCR, V domains shown)
V domain 1: GENVEQHPSTLSVQEGDSAVIKCTYSDSASNYFPWYKQELGKRPQLIIDIRSNVGEKKDQRIAVTLNKTAKHFSLHITETQPEDSAVYFCVVLGGAGNMLTFGGGTRLMVKP
V domain 2: DTGVSQDPRHKITKRGQNVTFRCDPISEHNRLYWYRQTLGQGPEFLTYFQNEAQLEKSRLLSDRFSAERPKGSFSTLEIQRTEQGDSAMYLCASSLTVSDGYTFGSGTRLTVVE
B7: TCR Y (TCR, V domains shown)
V domain 1: SQQGEEDPQALSIQEGENATMNCSYKTSINNLQWYRQNSGRGLVHLILIRSNEREKHSGRLRVTLDTSKKSSSLLITASRAADTASYFCATAYSGGGADGLTFGKGTHLIIQP
V domain 2: DTGVSQNPRHKITKRGQNVTFRCDPISEHNRLYWYRQTLGQGPEFLTYFQNEAQLEKSRLLSDRFSAERPKGSFSTLEIQRTEQGDSAMYLCASSLIRAEKLFFGSGTQLSVLE
B8: TCR AD (TCR, V domains shown)
V domain 1: SQQGEEDPQALSIQEGENATMNCSYKTSINNLQWYRQNSGRGLVHLILIRSNEREKHSGRLRVTLDTSKKSSSLLITASRAADTASYFCATVPTDYMYSGGGADGLTFGKGTHLIIQP
V domain 2: DTGVSQNPRHKITKRGQNVTFRCDPISEHNRLYWYRQTLGQGPEFLTYFQNEAQLEKSRLLSDRFSAERPKGSFSTLEIQRTEQGDSAMYLCASSLVRLDGYTFGSGTRLTVVE
B9: TCR AC (TCR, V domains shown)
V domain 1: SQQGEEDPQALSIQEGENATMNCSYKTSINNLQWYRQNSGRGLVHLILIRSNEREKHSGRLRVTLDTSKKSSSLLITASRAADTASYFCAKNDMRFGAGTRLTVKP
V domain 2: DTGVSQNPRHKITKRGQNVTFRCDPISEHNRLYWYRQTLGQGPEFLTYFQNEAQLEKSRLLSDRFSAERPKGSFSTLEIQRTEQGDSAMYLCASSLLVGETQYFGPGTRLLVLE
B10: TCR AB (TCR, V domains shown)
V domain 1: AQSVAQPEDQVNVAEGNPLTVKCTYSVSGNPYLFWYVQYPNRGLQFLLKYITGDNLVKGSYGFEAEFNKSQTSFHLKKPSALVSDSALYFCAVRVPTGGYQKVTFGIGTKLQVIP
V domain 2: DTGVSQNPRHKITKRGQNVTFRCDPISEHNRLYWYRQTLGQGPEFLTYFQNEAQLEKSRLLSDRFSAERPKGSFSTLEIQRTEQGDSAMYLCASKLTDTQYFGPGTRLTVLE
B11: TCR D (TCR, V domains shown)
V domain 1: AQSVAQPEDQVNVAEGNPLTVKCTYSVSGNPYLFWYVQYPNRGLQFLLKYITGDNLVKGSYGFEAEFNKSQTSFHLKKPSALVSDSALYFCAVRAPTSGTYKYIFGTGTRLKVLA
V domain 2: DTGVSQDPRHKITKRGQNVTFRCDPISEHNRLYWYRQTLGQGPEFLTYFQNEAQLEKSRLLSDRFSAERPKGSFSTLEIQRTEQGDSAMYLCASSLVSGNEQFFGPGTRLTVLE
B12: TCR E (TCR, V domains shown)
V domain 1: AQSVAQPEDQVNVAEGNPLTVKCTYSVSGNPYLFWYVQYPNRGLQFLLKYITGDNLVKGSYGFEAEFNKSQTSFHLKKPSALVSDSALYFCAVRGPTSGTYKYIFGTGTRLKVLA
V domain 2: DTGVSQDPRHKITKRGQNVTFRCDPISEHNRLYWYRQTLGQGPEFLTYFQNEAQLEKSRLLSDRFSAERPKGSFSTLEIQRTEQGDSAMYLCASSLVSGNEQFFGPGTRLTVLE
B13: TCR A (TCR, V domains shown)
V domain 1: AQSVAQPEDQVNVAEGNPLTVKCTYSVSGNPYLFWYVQYPNRGLQFLLKYITGDNLVKGSYGFEAEFNKSQTSFHLKKPSALVSDSALYFCAVRGGSYKYIFGTGTRLKVLA
V domain 2: DTGVSQDPRHKITKRGQNVTFRCDPISEHNRLYWYRQTLGQGPEFLTYFQNEAQLEKSRLLSDRFSAERPKGSFSTLEIQRTEQGDSAMYLCASTPGTVYNEQFFGPGTRLTVLE
B14: TCR AJ (TCR, V domains shown)
Valpha: EDQVTQSPEALRLQEGESSSLNCSYTVSGLRGLFWYRQDPGKGPEFLFTLYSAGEEKEKERLKATLTKKESFLHITAPKPEDSATYLCAVHSNAGGTSYGKLTFGQGTILTVHP
Vbeta: DAGVTQSPTHLIKTRGQHVTLRCSPISGHKSVSWYQQVLGQGPQFIFQYYEKEERGRGNFPDRFSARQFPNYSSELNVNALLLGDSALYLCASSADRGSPLHFGNGTRLTVT
B15: TCR Y (TCR, V domains shown)
Valpha: SQQGEEDPQALSIQEGENATMNCSYKTSINNLQWYRQNSGRGLVHLILIRSNEREKHSGRLRVTLDTSKKSSSLLITASRAADTASYFCATAYSGGGADGLTFGKGTHLIIQP
Vbeta: DTGVSQNPRHKITKRGQNVTFRCDPISEHNRLYWYRQTLGQGPEFLTYFQNEAQLEKSRLLSDRFSAERPKGSFSTLEIQRTEQGDSAMYLCASSLIRAEKLFFGSGTQLSVL
B16: TCR AC (TCR, V domains shown)
Valpha: SQQGEEDPQALSIQEGENATMNCSYKTSINNLQWYRQNSGRGLVHLILIRSNEREKHSGRLRVTLDTSKKSSSLLITASRAADTASYFCAKNDMRFGAGTRLTVKP
Vbeta: DTGVSQNPRHKITKRGQNVTFRCDPISEHNRLYWYRQTLGQGPEFLTYFQNEAQLEKSRLLSDRFSAERPKGSFSTLEIQRTEQGDSAMYLCASSLLVGETQYFGPGTRLLVL
B17: TCR AD (TCR, V domains shown)
Valpha: SQQGEEDPQALSIQEGENATMNCSYKTSINNLQWYRQNSGRGLVHLILIRSNEREKHSGRLRVTLDTSKKSSSLLITASRAADTASYFCATVPTDYMYSGGGADGLTFGKGTHLIIQP
Vbeta: DTGVSQNPRHKITKRGQNVTFRCDPISEHNRLYWYRQTLGQGPEFLTYFQNEAQLEKSRLLSDRFSAERPKGSFSTLEIQRTEQGDSAMYLCASSLVRLDGYTFGSGTRLTVV
B18: TCR Z (TCR, V domains shown)
Valpha: QQVMQIPQYQHVQEGEDFTTYCNSSTTLSNIQWYKQRPGGHPVFLIQLVKSGEVKKQKRLTFQFGEAKKNSSLHITATQTTDVGTYFCAGPKGNTPLVFGKGTRLSVIA
Vbeta: DTGVSQDPRHKITKRGQNVTFRCDPISEHNRLYWYRQTLGQGPEFLTYFQNEAQLEKSRLLSDRFSAERPKGSFSTLEIQRTEQGDSAMYLCASSLTVSYEQYFGPGTRLTVT
B19: TCR AA (TCR, V domains shown)
Valpha: QQQVKQSPQSLIVQKGGISIINCAYENTAFDYFPWYQQFPGKGPALLIAIRPDVSEKKEGRFTISFNKSAKQFSLHIMDSQPGDSATYFCAASSPGTYKYIFGTGTRLKVLA
Vbeta: DTGVSQDPRHKITKRGQNVTFRCDPISEHNRLYWYRQTLGQGPEFLTYFQNEAQLEKSRLLSDRFSAERPKGSFSTLEIQRTEQGDSAMYLCASSLLKNTEAFFGQGTRLTVV
B20: TCR AB (TCR, V domains shown)
Valpha: AQSVAQPEDQVNVAEGNPLTVKCTYSVSGNPYLFWYVQYPNRGLQFLLKYITGDNLVKGSYGFEAEFNKSQTSFHLKKPSALVSDSALYFCAVRVPTGGYQKVTFGIGTKLQVIP
Vbeta: DTGVSQNPRHKITKRGQNVTFRCDPISEHNRLYWYRQTLGQGPEFLTYFQNEAQLEKSRLLSDRFSAERPKGSFSTLEIQRTEQGDSAMYLCASKLTDTQYFGPGTRLTVL

What follows are binders tested against T2, HA-1 “H” peptide (…) presented by HLA-A*02:01 on antigen presenting cells (human) (assay: cell-based or functional assay).

**Q.** Which “EC50 values for CD69 Expression” value does the source give for B1 here?
**A.** 125 ng/mL

**Q.** Which “EC50 values for CD69 Expression” value does the source give for B2 here?
**A.** 5 ng/mL

**Q.** How did the “EC50 values for CD69 Expression” value turn out when B3 was run?
**A.** 1.1 ng/mL

**Q.** With B4 as the binder, how does the “EC50 values for CD69 Expression” value read?
**A.** 7.18 ng/mL

**Q.** How did the “EC50 values for CD69 Expression” value turn out when B5 was run?
**A.** 1.5 ng/mL

**Q.** How did the “EC50 values for CD69 Expression” value turn out when B6 was run?
**A.** 23.6 ng/mL

**Q.** Which “EC50 values for CD69 Expression” value does the source give for B7 here?
**A.** 10.8 ng/mL

**Q.** B8 was tested. Which “EC50 values for CD69 Expression” value did it give?
**A.** 4.9 ng/mL

**Q.** For B9, which “EC50 values for CD69 Expression” value is on record?
**A.** 0.9 ng/mL

**Q.** Which “EC50 values for CD69 Expression” value does the source give for B10 here?
**A.** 40.2 ng/mL

Molecular target: T2, HA-1 “H” peptide (…) presented by …
Assay: cell-based or functional assay
Remark: another data set of the same source

**Q.** B11 was tested. Which “EC50 for CD69 Expression” value did it give?
**A.** < 10 nM and < 10 ng/mL

**Q.** Which “EC50 for CD69 Expression” value does the source give for B12 here?
**A.** < 10 ng/mL and < 10 nM

**Q.** For B13, which “EC50 for CD69 Expression” value is on record?
**A.** < 10 ng/mL and < 10 nM

Molecular target: T1, minor histocompatibility antigen HA-1, …
Assay: multimer staining

**Q.** Does B14 bind?
**A.** recognises

**Q.** Does B15 bind?
**A.** recognises

**Q.** Does B16 bind?
**A.** recognises

**Q.** Does B17 bind?
**A.** recognises

**Q.** Does B18 bind?
**A.** recognises

**Q.** Does B19 bind?
**A.** recognises

**Q.** Does B20 bind?
**A.** recognises
